We go through 41 sequences from the nanobody polyreactivity screen of Harvey et al. (2022).

This data set in a line: yeast display, Sf9 membrane polyspecificity reagent, FACS + sequencing; frameworks hold sequencing errors. In a few lines:
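Nanobodies from a synthetic yeast display library (Saccharomyces cerevisiae BJ5465), induced 36–48 hours with galactose, were stained 1 hour at 4 °C with 10% biotinylated, detergent-solubilized Sf9 membrane reagent, enriched on streptavidin microbeads, then FACS-sorted. Anti-HA (expression) and streptavidin (reagent binding) fluorescence set low and high (top ~1%) gates. Polyreactivity labels come from the gate of origin. Genes were colony-PCR amplified, MiSeq 2 × 250 sequenced and filtered by CDR length.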
Take “QVQLVESGGGLVQAGGSLRLSCAASGFTISQYAMGWYRQAPGKERELVAAISASGGRTYYADSVKGRFTISRDNAKNTVYLQMNSLKPDDTAVYYCAAKLYVSGGRYWYDYWGQGTQVTVSS”: the “polyreactivity (PSR sort gate)” value is on record as “high polyreactivity”. With “QVQLVESGGGLVQAGGSLRLSCAASGFTITRYAMGWYRQAPGKERELVAAISKSGGSTFYADSVKGRFTISRDNAKNTVYLQMNSLKPEDTAVYYCAKVLRAKNSFDYWGQGTQVTVSS”, the “polyreactivity (PSR sort gate)” value is listed as “high polyreactivity”. For “QVQLVESGGGLVQAGGSLRLSCAASGFTITYNAMGWYRKAPGKEREFVAAITNNGSTYYADSVKGRFTISRDNAKNTVYLQMNSLKPEDTAVYFCAVDPGYYDEYNYWGQGTQVTVSS” the value was “low polyreactivity”; for “QVQLVESGGGLVQAGGSLRLSCAASGFTLAGYAMGWYRQAPGKERELVAAITSSGGSTFYADSVKGRFTISRDNAKNTVYLQMNSLKPEDTAVYYCAAKWAVVSGYGYWGQGTQVTVSS”, “high polyreactivity”; for “QVQLVESGGGLVQAGGSLRLSCAASGFTLARYAMGWYRQATGKERELVAAITKRGGSTYYADSVKGRFTISRDNAMNTVYLQMNSLKPEDTAVYYCATYKRSSHYDYWGQGTQVTVSS”, “high polyreactivity”. On to “QVQLVESGGGLVQAGGSLRLSCAASGFTLEFYAMGWYRQAPGKERELVARITTSGGSTRYADSVKGRFTISRDNAKNTVYLQMNSLKPEDTAVYYCPARGYGYRNVQTYGYWGQGTQVTVSS”, for which the “polyreactivity (PSR sort gate)” value is on record as “high polyreactivity”. With “QVQLVESGGGLVQAGGSLRLSCAASGFTLEPNTMGWYRQAPGKERELVAGISWSGGSTYYADSVKGRFTISRDNAKNTVYLQMNSLKPEDTAVYYCNDDSGWFCYDYWGQGTQVTVSS”, the “polyreactivity (PSR sort gate)” value is “low polyreactivity”.

“QVQLVESGGGLVQAGGSLRLSCAASGFTLFGYAMGWYRPAPGKERELVAAITRSGGSTFYADSVKGRFTISRDNAKNTVYLQMNSLKPEDTAVYYCAAVRSKLYYYWGQGTQVTVSS”: the “polyreactivity (PSR sort gate)” value is “high polyreactivity”. In the case of “QVQLVESGGGLVQAGGSLRLSCAASGFTLGDNAMGWYRQAPGTERELVAAISASGGSTYYADSVKGRFTISRDNEKNTVYLQMNSLKPEDTAVYYCILHGYKYDYWGQGTQVTVSS”, the “polyreactivity (PSR sort gate)” value was “low polyreactivity”. For the sequence “QVQLVESGGGLVQAGGSLRLSCAASGFTLGFYAMGWYRQEPGKERELVAAINWRGGSTYYADSVKGRFTISRDNAKNTVYLLMNSLKPEDTAVYYCNRVYRPSRYDYWGQGTQVTVSS”, the “polyreactivity (PSR sort gate)” value was “high polyreactivity”. As for “QVQLVESGGGLVQAGGSLRLSCAASGFTLGSYVMGWSRQAPGKERELVARITWSGGSTYYADSVKGRFTISRDNAKNTVYLQMNSLKPEDTAVYYCNTGYWARLAYWPFNYKWDDYWGQGTQVTVSS”, the “polyreactivity (PSR sort gate)” value is recorded as “high polyreactivity”. As to “QVQLVESGGGLVQAGGSLRLSCAASGFTLGTNTMGWYRQAPGKEREFVAAISGRGSSTYYADSVKGRFTISRDNAKNTVYLQMNSLKPEDTAVYYCNKVFWPHPKVVTGNYWGQGTQVTVSS”, the “polyreactivity (PSR sort gate)” value is listed as “high polyreactivity”. Regarding “QVQLVESGGGLVQAGGSLRLSCAASGFTLGWYAMGWYRQAPGKERELVASINWDGGSTYYADSVKGRFTISRDNAKNTVYLQMNSLKPEDTAVYYCNAVNKWFPKVGYNYWGQGTQVTVSS”, the “polyreactivity (PSR sort gate)” value is reported as “high polyreactivity”. Turning to “QVQLVESGGGLVQAGGSLRLSCAASGFTLHSYAMGWYRQAPGKERELVAAITTGGSTYYADSVKGRFTISRDNAKNTVYLQMNSLKPEDTAVYYCAADVPGNYRKYRYGRASSHDYWGQGTQVTVSS”, the “polyreactivity (PSR sort gate)” value is “low polyreactivity”. As to “QVQLVESGGGLVQAGGSLRLSCAASGFTLNAYAMGWYRQAPGKERELVAAISRNGGRTYYADSVKGRFTISRDNAKNTVYLQMNSLKPEDTAVYYCNAVSGTIARPYDPYDYWGQGTQVTVSS”, the “polyreactivity (PSR sort gate)” value is “high polyreactivity”.

On to “QVQLVESGGGLVQAGGSLRLSCAASGFTLRGNAMGWYRQAPGKERELVAAISTGGSTYYADSVKGRFTISRDNAKNTVYLQMNSLKPEDTAVYYCARRGWFHYRYYYWGQGTQVTVSS”, for which the “polyreactivity (PSR sort gate)” value was “high polyreactivity”. With “QVQLVESGGGLVQAGGSLRLSCAASGFTLRKYSMGWYRQAPGKEREFVATISSRAASTYYADSVKGRFTISRDNAKNTVYLQMISLKPEDTAVYYCNKVSPYRGYYWGQGTQVTVSS”, the “polyreactivity (PSR sort gate)” value is on record as “high polyreactivity”.

With “QVQLVESGGGLVQAGGSLRLSCAASGFTLSRYAMGWYRQAPGKERELVAAIRWSGGSTYYADSVKGRFTISRDNAKNTVYLQMNSLKPEDTAVYYCATRYYLKFLDGYNYWGQGTQVTVSS”, the “polyreactivity (PSR sort gate)” value is reported as “high polyreactivity”.

Consider “QVQLVESGGGLVQAGGSLRLSCAASGFTLTAYAMGWYRQARGKEREFVAAISTSGTRTYYADSVKGRFTISRDNAKNTVYLQMNSLKPEDTAVYYCGARYSGYQYWKFNYWGQGTQVTVSS”, for which the “polyreactivity (PSR sort gate)” value is “high polyreactivity”. Regarding “QVQLVESGGGLVQAGGSLRLSCAASGFTLVGYAMGWYRQAPGKERELVAAISSGGRTKYADSVKGRFTFSRDNAKNTVYLQMNSLKPEDTAVYYCKAVFTRGVTQYDHYYWGQGTQVTVSS”, the “polyreactivity (PSR sort gate)” value is on record as “high polyreactivity”. For “QVQLVESGGGLVQAGGSLRLSCAASGFTLWLNAMGWSRQAPGKERELVAAITTSDDGTYYADSVNGRFTISRDTAKNTVYLQMNSLKPEDTAVYYCAADYYSVLYDYWGQGTQVTVSS” the value was “low polyreactivity”. Consider “QVQLVESGGGLVQAGGSLRLSCAASGFTLYEYAMGWYRQAPGKERELVAAISSAGNTNYADSVKGRFTISRDNAKNTVYLQLNSLKPEDTAVYYCAKYRYDYTKTEGGYWGQGTQVTVSS”, for which the “polyreactivity (PSR sort gate)” value was “low polyreactivity”. Turning to “QVQLVESGGGLVQAGGSLRLSCAASGFTLYGYAMGWYRQAPGKERELVAGIRYSGGRTYYADSVKGRFTISRDNAKNTVYLQMNSLKPEDTAVYYCAADGGYWRGTGYEYWGQGTQVTVSS”, the “polyreactivity (PSR sort gate)” value is recorded as “high polyreactivity”. Consider “QVQLVESGGGLVQAGGSLRLSCAASGFTLYGYTMGWSRQAPGKERELVAAITVSGTSTYYADSVKGRFTISRDNAKYTVSLQMNSLKPEDTAVYYCAARPRRRYYGYDSWGQGTQVSVSS”, for which the “polyreactivity (PSR sort gate)” value was “high polyreactivity”. Regarding “QVQLVESGGGLVQAGGSLRLSCAASGFTLYGYTMGWYRQAPGKERELVAAISGSGGRTYYADSVKGRFTISRDNAKNTVYLQMNSLKPEDTAVYYCAARHHPEYYYWGQGTQVTVSS”, the “polyreactivity (PSR sort gate)” value is given as “high polyreactivity”. Regarding “QVQLVESGGGLVQAGGSLRLSCAASGFTLYNNAMGWYRQAPGKERELVARISGSGGSTYYADSVKGRFTISRDNAKNTVYLQMNSLKPEDTAVYYCNARATYVPTYGYTHWYNYWGQGTQVTVSS”, the “polyreactivity (PSR sort gate)” value is “low polyreactivity”. With “QVQLVESGGGLVQAGGSLRLSCAASGFTLYPYAKGWYRQAPGKARELVAAISWSVGSTRYADSVKGRFTISRDNAKNTVYLQMNSLKPEDTAVYYCAARPHGRFSQLRVDWGQGTQVTVSS”, the “polyreactivity (PSR sort gate)” value is recorded as “low polyreactivity”.

In the case of “QVQLVESGGGLVQAGGSLRLSCAASGFTLYRYAMGWYIQAPGKERELVAAISKRGASSYYADSVKGRFTISRDNAKNTVYLQMNSLKPEDTAVYYCAATISRAYKPVKGHYYLGMDYWGQGTQVTVSS”, the “polyreactivity (PSR sort gate)” value is listed as “high polyreactivity”. Consider “QVQLVESGGGLVQAGGSLRLSCAASGFTLYRYAMGWYRQAPGKERELVAAISKRGATSYYADSVKGRFTISRDNAKNTVYLQMNSLKPEDTAVYYCAATISRAYKPVKGHYYLGMDYWGQGTQVTVSS”, for which the “polyreactivity (PSR sort gate)” value is given as “high polyreactivity”.

Consider “QVQLVESGGGLVQAGGSLRLSCAASGFTLYSYAMGWYRQAPGKERELVAAISWSGTRTYYADTVKGRFTISRDNAKNTVYLQMNSLKPEDTAVYYCAARGYRYGYGYWGQCTQVTVSS”, for which the “polyreactivity (PSR sort gate)” value is reported as “high polyreactivity”. On to “QVQLVESGGGLVQAGGSLRLSCAASGFTLYYYAMGWYRQAPGKERELVAAISTRGGRTYYADSVKGRFTISRDNAKNTVYLQINSLKPEDTAVYYCAAAFSLKSLNTRWTWSRYYYWGQGTQVTVSS”, for which the “polyreactivity (PSR sort gate)” value is “high polyreactivity”. For “QVQLVESGGGLVQAGGSLRLSCAASGFTLYYYAMGWYRQAPGKERELVAAISYSGGTTYYADSVKGRFTISRDNAKYTVSLQMNSLKPEDTAVYYCAAEVGGYWADEYLGYDYWGQGTQVTVSS” the value was “low polyreactivity”; for “QVQLVESGGGLVQAGGSLRLSCAASGFTSDGYAMGWYRQAPGKERELVAAISWRGGSTYYADSVKGRFTISRDNAKNTVYLQMNSLKPEDTAVYYCAKDYYYGLEHYGYWGQGTQVTVSS”, “low polyreactivity”; for “QVQLVESGGGLVQAGGSLRLSCAASGFTSGYNVMGWYRQEPGKERELVAAISWRGTSTYYADSVKGRFTISRDNAKNTVYLQMNSLKPEDTAVYYCAADRYWRLSGYEYWGQGTQVTVSS”, “high polyreactivity”. Turning to “QVQLVESGGGLVQAGGSLRLSCAASGFTSLGNAMGWYRQAPGKERELVAAISRSGGRTYYADSVKGRFTISRDNAKNTVYLQMNSLKPEDTAVYYCNAVRLYGQGGDYWGQGTQVTVSS”, the “polyreactivity (PSR sort gate)” value is listed as “high polyreactivity”. Take “QVQLVESGGGLVQAGGSLRLSCAASGFTSPTAMGWYRQAPGKVRELVADISVGDGSTYYADSVKGRFTISRDNAKNTVYLQMNSLKREDTAVYYCAAEYWLYWYQDGFGFDYWGQGTQVTVSS”: the “polyreactivity (PSR sort gate)” value is on record as “high polyreactivity”. As for “QVQLVESGGGLVQAGGSLRLSCAASGFTSRLYAMGWYRQAPGKEREFVAAISWDGTRTYYADSVKGRFTISRDNAKNTVYLQMNSLKPEDTAVYYCNARRRQWQARYDYWGQGTQITVSS”, the “polyreactivity (PSR sort gate)” value is “high polyreactivity”. Consider “QVQLVESGGGLVQAGGSLRLSCAASGFTSSINAMGWYRQEPGKERELVAAIRSGGSTNYADSVKGRFTISRDNAKNTVYLQMNSLKPEDTAVYYCAAVTRVYGKTMGYWGQGTQVTVSS”, for which the “polyreactivity (PSR sort gate)” value is recorded as “high polyreactivity”. On to “QVQLVESGGGLVQAGGSLRLSCAASGFTVDYYAMGWYLQAPGKERELVAAISSSGGSTYYADSVKGRFTISRDNAKNTVYLLMNSLKPEDTAVYYCATGHSKQYDYWGQGTQVTVSS”, for which the “polyreactivity (PSR sort gate)” value is reported as “high polyreactivity”. As to “QVQLVESGGGLVQAGGSLRLSCAASGFTVFYNAMGWYRQAPGKERELVAAITARGGGTYYADSVKGRFTISRDNAKNTVYLQMNSLKPEDTAVYYCAADSFIPPYDHWGQGTQVTVSS”, the “polyreactivity (PSR sort gate)” value is given as “low polyreactivity”.

In the case of “QVQLVESGGGLVQAGGSLRLSCAASGFTVNNNGMGWYIQAPGKERELVASISSRTTSTYYADSVKGRFTFSRDKAKNTDYFQTNSLKPEDTAVYYCAAQAWWDGEYDYWGQGTQVTVSS”, the “polyreactivity (PSR sort gate)” value is reported as “high polyreactivity”.
